Experimental data from PMC13147315.

Assays:
[1] = molecular target: T1, N_WT (nucleocapsid, Wuhan) (SARS-CoV-2 (Wuhan), UniProt P0DTC9 1-419); assay: MST; conditions: protein: recombinant, tags: 6xHis, chain copies: 2
N_CTD = N_CTD (SARS-CoV-2 (Wuhan), UniProt P0DTC9 247-364); assay: MST; conditions: protein: recombinant, tags: 6xHis, chain copies: 2
[2] = molecular target: T1, N_WT (nucleocapsid, Wuhan); assay: EMSA; full binding at about 500 nM N; conditions: protein: recombinant; tags: 6xHis; chain copies: 2
[3] = molecular target: T1, N_WT (nucleocapsid, Wuhan); assay: EMSA; 15-500 nM N; conditions: protein: recombinant; tags: 6xHis; chain copies: 2; label: Cy5 on RNA2; 3' overhang 11 nt on strand 1
[4] = label: Cy5 (Methods EMSA: Cy3), blunt

B1: dsRNA20 (dsRNA)
RNA 1: UUCGUCCGGGUGUGACCGAAAGGUAA
RNA 2: UUACCUUUCGGUCACACCCGGACGAA
B1 was tested, and the Kd ([1]; label: Cy5, blunt) was 398 ± 157 nM and the Kd (N_CTD; label: Cy5, blunt) was 3300 ± 394 nM.

In the case of CAUAAUAAGAGGCUGGAUUUUUGGUA (ssRNA) [ssRNA22], the Kd ([1]; label: Cy5) is reported as 291 ± 121 nM and the Kd (N_CTD; label: Cy5) is reported as 2730 ± 588 nM.

B2: DNA of Fig. S2F (mixed)
DNA 1: TTTCGGCCTCATCAGGTCATCGCTTTAGTGAGGGTTAATAAA
DNA 2: TTATTAACCCTCACTAAA
B2: binds [2].

With AACCAUAACAUGACCAUGAGGUGCAG (ssRNA) [ssRNA3] the Kd ([1]; label: Cy5 (Methods EMSA: Cy3)) was 1260 ± 722 nM and the Kd (N_CTD; label: Cy5 (Methods EMSA: Cy3)) was 4290 ± 427 nM.

UUCGUCCGGGUGUGACCGAAAGGUAA (ssRNA) [ssRNA20] gave a Kd ([1]; label: Cy5) of 425 ± 186 nM and a Kd (N_CTD; label: Cy5) of 8540 ± 4510 nM.

B3: dsRNA22 (dsRNA)
RNA 1: CAUAAUAAGAGGCUGGAUUUUUGGUA
RNA 2: UACCAAAAAUCCAGCCUCUUAUUAUG
For B3, the Kd ([1]; label: Cy5, blunt) was 344 ± 132 nM and the Kd (N_CTD; label: Cy5, blunt) was 1840 ± 252 nM.

B4: dsRNA3 (dsRNA)
RNA 1: AACCAUAACAUGACCAUGAGGUGCAG
RNA 2: CUGCACCUCAUGGUCAUGUUAUGGUU
B4 gave a Kd [1, 4] of 647 ± 151 nM and a Kd (N_CTD; [4]) of 2550 ± 567 nM.

B5: hybridized RNA2 (RNA2-Cy5/RNA7) (dsRNA)
RNA 1: CUGCACCUCAUGGUCAUGUUAUGGUU
RNA 2: GACCAUGAGGUGCAG
B5: binds [3].
